Substitutions are numbered along the chain they refer to.
Columns and labels:
[1] = molecular target: T1, Mnl1(C644S), FLAG-tagged (S. cerevisiae, UniProt P38888 21-796, C644S); experiment: cross-linking
T1 sequence (looked up): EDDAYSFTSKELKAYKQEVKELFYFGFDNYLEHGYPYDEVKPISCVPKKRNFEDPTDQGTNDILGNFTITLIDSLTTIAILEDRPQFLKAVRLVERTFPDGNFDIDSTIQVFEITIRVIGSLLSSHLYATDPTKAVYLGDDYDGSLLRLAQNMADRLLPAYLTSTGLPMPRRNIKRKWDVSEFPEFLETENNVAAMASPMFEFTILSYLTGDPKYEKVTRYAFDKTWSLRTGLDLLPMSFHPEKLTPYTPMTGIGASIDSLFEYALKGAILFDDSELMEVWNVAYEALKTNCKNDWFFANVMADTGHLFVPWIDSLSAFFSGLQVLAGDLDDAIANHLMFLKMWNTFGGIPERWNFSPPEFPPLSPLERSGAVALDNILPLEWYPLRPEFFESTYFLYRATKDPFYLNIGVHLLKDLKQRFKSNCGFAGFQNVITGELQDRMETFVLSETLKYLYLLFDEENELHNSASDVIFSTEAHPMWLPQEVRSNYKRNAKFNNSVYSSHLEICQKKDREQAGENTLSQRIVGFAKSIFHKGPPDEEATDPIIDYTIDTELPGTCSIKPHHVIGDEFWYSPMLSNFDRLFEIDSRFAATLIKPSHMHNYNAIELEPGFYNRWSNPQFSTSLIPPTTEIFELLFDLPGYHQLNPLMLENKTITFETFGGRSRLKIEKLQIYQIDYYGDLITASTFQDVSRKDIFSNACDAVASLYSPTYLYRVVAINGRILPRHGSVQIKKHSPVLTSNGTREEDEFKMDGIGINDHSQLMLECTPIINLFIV

[2] = molecular target: T2, Mnl1(C579S), FLAG-tagged (S. cerevisiae, UniProt P38888 21-796, C579S); experiment: cross-linking
T2 sequence (looked up): T1 sequence (looked up) with C559S, S624C

[3] = molecular target: T3, Mnl1 mCTD mutant (L655N, F770Y, M772K), FLAG-tagged (S. cerevisiae, UniProt P38888 21-796, L655N | F770Y | M772K); experiment: co-IP + SEC
T3 sequence (looked up): T1 sequence (looked up) with S624C, L635N, F750Y, M752K

[4] = molecular target: T4, FLAG-tagged Mnl1 (Mnl1-FLAG) (S. cerevisiae, UniProt P38888 21-796); experiment: cryo-EM structure
T4 sequence (looked up): T1 sequence (looked up) with S624C

Measured: binding result

B1: protein disulfide isomerase (Pdi1) (enzyme, S. cerevisiae, UniProt P17967 29-522, looked up)
chain: PEDSAVVKLATDSFNEYIQSHDLVLAEFFAPWCGHCKNMAPEYVKAAETLVEKNITLAQIDCTENQDLCMEHNIPGFPSLKIFKNSDVNNSIDYEGPRTAEAIVQFMIKQSQPAVAVVADLPAYLANETFVTPVIVQSGKIDADFNATFYSMANKHFNDYDFVSAENADDDFKLSIYLPSAMDEPVVYNGKKADIADADVFEKWLQVEALPYFGEIDGSVFAQYVESGLPLGYLFYNDEEELEEYKPLFTELAKKNRGLMNFVSIDARKFGRHAGNLNMKEQFPLFAIHDMTEDLKYGLPQLSEEAFDELSDKIVLESKAIESLVKDFLKGDASPIVKSQEIFENQDSSVFQLVGKNHDEIVNDPKKDVLVLYYAPWCGHCKRLAPTYQELADTYANATSDVLIAKLDHTENDVRGVVIEGYPTIVLYPGGKKSESVVYQGSRSLDSLFDFIKENGHFDVDGKALYEEAQEKAAEEADADAELADEEDAIHDEL
binds: all assays above
